Laboratory results from the supplement of paper PMC9112550, “Optimization of the antimicrobial peptide Bac7 by deep mutational scanning” (BMC Biology, 2022).

The sequences below were run on Escherichia coli TOP10 (assay: shrunken log2 fold change of peptide-encoding DNA abundance (4.5 h post-induction vs induction); higher = less antimicrobial activity (less host growth inhibition)). Details: time post-induction: 4.5 h; library: site-saturation at positions 5, 18, 19, 20.
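Further: peptides expressed intracellularly from a pBAD plasmid library in pooled LB shake-flask culture, induced with 0.3% L-arabinose, DNA abundance read by NGS, three biological replicates, DESeq2 with apeglm shrinkage.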

First: RRIRERPPRLPRPRPRPKDIPRP
Second: RRIRPRPPRLPRPRPRPVGDPRP
The “shrunken log2 fold change” value of the first is lower: 0.0209 for the first, 0.365 for the second.

RRIRPRPPRLPRPRPRPEAWPRP and RRIRCRPPRLPRPRPRPGRSPRP are within 0.2 log units of each other in “shrunken log2 fold change” value: -0.0196 for the first, 0.0654 for the second.

Compared with RRIRYRPPRLPRPRPRPQRDPRP, RRIRIRPPRLPRPRPRPPNHPRP is lower in “shrunken log2 fold change” value: -0.256 for the first, -0.475 for the second.

Compared with RRIRERPPRLPRPRPRPSIRPRP, RRIRMRPPRLPRPRPRPFGSPRP is higher in “shrunken log2 fold change” value: -0.242 for the first, 0.00388 for the second.

Compared with RRIRTRPPRLPRPRPRPSAHPRP, RRIRERPPRLPRPRPRPAPCPRP is higher in “shrunken log2 fold change” value: -0.229 for the first, 0.0086 for the second.

First: RRIRDRPPRLPRPRPRPIIFPRP
Second: RRIRHRPPRLPRPRPRPCFQPRP
The “shrunken log2 fold change” value of the first is higher: -0.00292 for the first, -0.558 for the second.

Compared with RRIRTRPPRLPRPRPRPKQKPRP, RRIRLRPPRLPRPRPRPKYIPRP is lower in “shrunken log2 fold change” value: -0.203 for the first, -0.603 for the second.

Compared with RRIRMRPPRLPRPRPRPWFGPRP, RRIRERPPRLPRPRPRPCINPRP is lower in “shrunken log2 fold change” value: 0.134 for the first, -0.0818 for the second.

Going from RRIRCRPPRLPRPRPRPHWLPRP to RRIRPRPPRLPRPRPRPMPTPRP, the “shrunken log2 fold change” value rises from -0.311 to 0.22.

First: RRIRLRPPRLPRPRPRPRRIPRP
Second: RRIRDRPPRLPRPRPRPAHEPRP
The “shrunken log2 fold change” value of the first is higher: 0.214 for the first, -0.0156 for the second.

Going from RRIRVRPPRLPRPRPRPPKNPRP to RRIRMRPPRLPRPRPRPTIYPRP, the “shrunken log2 fold change” value rises from 0.192 to 0.713.

First: RRIRERPPRLPRPRPRPACKPRP
Second: RRIRKRPPRLPRPRPRPKVWPRP
The “shrunken log2 fold change” value of the first is lower: 0.104 for the first, 0.354 for the second.

RRIRCRPPRLPRPRPRPHMFPRP and RRIRSRPPRLPRPRPRPCVSPRP are within 0.2 log units of each other in “shrunken log2 fold change” value: -0.348 for the first, -0.391 for the second.

Going from RRIRVRPPRLPRPRPRPKERPRP to RRIRGRPPRLPRPRPRPLGFPRP, the “shrunken log2 fold change” value rises from 0.0774 to 0.755.

Going from RRIRLRPPRLPRPRPRPKVDPRP to RRIRKRPPRLPRPRPRPSTGPRP, the “shrunken log2 fold change” value falls from -0.00247 to -0.284.

Going from RRIRHRPPRLPRPRPRPITGPRP to RRIRSRPPRLPRPRPRPAFGPRP, the “shrunken log2 fold change” value rises from 0.015 to 0.291.

First: RRIRSRPPRLPRPRPRPVFNPRP
Second: RRIRVRPPRLPRPRPRPGWWPRP
The “shrunken log2 fold change” value of the first is lower: -0.709 for the first, 0.115 for the second.

RRIRLRPPRLPRPRPRPNQYPRP and RRIRRRPPRLPRPRPRPLFVPRP are within 0.2 log units of each other in “shrunken log2 fold change” value: -0.126 for the first, -0.0826 for the second.

First: RRIRDRPPRLPRPRPRPDIFPRP
Second: RRIRSRPPRLPRPRPRPHIQPRP
The “shrunken log2 fold change” value of the first is higher: 0.171 for the first, -0.699 for the second.

Compared with RRIRCRPPRLPRPRPRPDIYPRP, RRIRYRPPRLPRPRPRPCFMPRP is lower in “shrunken log2 fold change” value: -0.174 for the first, -0.675 for the second.

Going from RRIRKRPPRLPRPRPRPEKIPRP to RRIRFRPPRLPRPRPRPFKVPRP, the “shrunken log2 fold change” value falls from 0.185 to -0.327.

Compared with RRIRCRPPRLPRPRPRPDWWPRP, RRIRGRPPRLPRPRPRPLYQPRP is lower in “shrunken log2 fold change” value: 0.256 for the first, 0.0508 for the second.

Going from RRIRMRPPRLPRPRPRPERVPRP to RRIRRRPPRLPRPRPRPGAKPRP, the “shrunken log2 fold change” value falls from 2.69 to 0.701.

First: RRIRSRPPRLPRPRPRPKQCPRP
Second: RRIRRRPPRLPRPRPRPSMNPRP
The “shrunken log2 fold change” value of the first is higher: 0.14 for the first, -0.467 for the second.

Going from RRIRRRPPRLPRPRPRPAWAPRP to RRIRQRPPRLPRPRPRPAQFPRP, the “shrunken log2 fold change” value falls from 0.791 to 0.237.

Going from RRIRDRPPRLPRPRPRPQRRPRP to RRIRNRPPRLPRPRPRPGMAPRP, the “shrunken log2 fold change” value falls from 0.255 to 0.0313.

RRIRGRPPRLPRPRPRPVFKPRP and RRIRERPPRLPRPRPRPSPGPRP are within 0.2 log units of each other in “shrunken log2 fold change” value: 0.193 for the first, -0.00119 for the second.

RRIRERPPRLPRPRPRPQGQPRP and RRIRNRPPRLPRPRPRPPSSPRP are within 0.2 log units of each other in “shrunken log2 fold change” value: -0.0238 for the first, -0.0814 for the second.

RRIRCRPPRLPRPRPRPEQAPRP and RRIRSRPPRLPRPRPRPREHPRP are within 0.2 log units of each other in “shrunken log2 fold change” value: 0.219 for the first, 0.152 for the second.

Compared with RRIRQRPPRLPRPRPRPSEAPRP, RRIRPRPPRLPRPRPRPYKIPRP is lower in “shrunken log2 fold change” value: 0.17 for the first, -0.227 for the second.

First: RRIRYRPPRLPRPRPRPRHIPRP
Second: RRIRDRPPRLPRPRPRPFPMPRP
The “shrunken log2 fold change” value of the first is lower: -0.767 for the first, -0.0572 for the second.

RRIRVRPPRLPRPRPRPWDSPRP and RRIRDRPPRLPRPRPRPHETPRP are within 0.2 log units of each other in “shrunken log2 fold change” value: -0.181 for the first, -0.0736 for the second.

Compared with RRIRCRPPRLPRPRPRPHIMPRP, RRIRFRPPRLPRPRPRPGLSPRP is higher in “shrunken log2 fold change” value: -1.4 for the first, -0.0429 for the second.

Going from RRIRVRPPRLPRPRPRPHYAPRP to RRIRMRPPRLPRPRPRPEVKPRP, the “shrunken log2 fold change” value rises from -0.0814 to 2.97.

Compared with RRIRNRPPRLPRPRPRPGVWPRP, RRIRVRPPRLPRPRPRPVLKPRP is lower in “shrunken log2 fold change” value: 0.474 for the first, -0.193 for the second.

RRIRSRPPRLPRPRPRPFCAPRP and RRIRNRPPRLPRPRPRPHDIPRP are within 0.2 log units of each other in “shrunken log2 fold change” value: 0.0376 for the first, -0.0337 for the second.

Going from RRIRPRPPRLPRPRPRPYTRPRP to RRIRYRPPRLPRPRPRPASCPRP, the “shrunken log2 fold change” value rises from -0.853 to -0.235.

In the case of RRIRRRPPRLPRPRPRPEDNPRP, the “shrunken log2 fold change” value is reported as 0.066.
